# Test results reported in the Human Domainome abundance scans (Beltran et al. 2025).
# ± gives the uncertainty stated by the source.
# B1: Transcriptional regulator ERG, residues 117 to 197; numbered along this chain, P11308 (parent)
# chain: NMTTNERRVIVPADPTLWSTDHVRQWLEWAVKEYGLPDVNILLFQNIDGKELCKMTKDDFQRLTPSYNADILLSHLHYLRE
# Variants of: B1
# Assay: abundance fitness (aPCA) (normalised: wild type 0, dead -1); higher = more abundant; growth selection in yeast, the domain comes from the species named
# Settings: Homo sapiens
row,Variant,abundance fitness
1,K54P,-1.08 ± 0.32
2,L42N,0.078 ± 0.067
3,Q45W,-0.292 ± 0.052
4,L27T,-0.628 ± 0.098
5,Q61K,0.044 ± 0.094
6,L27Y,-0.584 ± 0.15
7,Q25M,0.022 ± 0.059
8,L72S,-0.801 ± 0.13
9,Y67H,0.033 ± 0.15
10,H77D,-0.128 ± 0.11
11,L73P,-0.634 ± 0.2
12,L72T,-0.543 ± 0.12
13,L76S,-0.576 ± 0.19
14,L73Y,-0.054 ± 0.17
15,Q25P,-1 ± 0.2
16,E6D,-0.085 ± 0.073
17,S19F,-0.719 ± 0.23
18,I47W,-0.653 ± 0.075
19,T64E,-0.175 ± 0.06
20,Y67A,0.016 ± 0.063
21,T20Q,-0.064 ± 0.052

row,Variant,abundance fitness
1,L79R,-0.002 ± 0.056
2,A30E,-0.051 ± 0.054
3,I47R,-0.609 ± 0.061
4,N46E,0.039 ± 0.053
5,A13D,0.235 ± 0.063
6,L63G,-0.547 ± 0.056
7,W26N,-0.657 ± 0.21
8,K50L,-0.054 ± 0.038
9,D14W,-0.809 ± 0.15
10,S74F,-0.379 ± 0.13
11,T56G,0.042 ± 0.041
12,F44H,-0.407 ± 0.15
13,H77I,0.142 ± 0.18
14,E81N,0.557 ± 0.38
15,K57F,-0.15 ± 0.15
16,N40H,-0.292 ± 0.077
17,L17R,0.039 ± 0.038
18,V39W,-0.334 ± 0.05
19,R7C,-0.12 ± 0.068
20,S19E,-0.129 ± 0.049
21,Q45E,0.045 ± 0.043

row,Variant,abundance fitness
1,G35K,0.044 ± 0.049
2,I10P,0.214 ± 0.06
3,I41T,-0.034 ± 0.057
4,E51C,-0.127 ± 0.058
5,P37W,-0.123 ± 0.061
6,L79T,0.021 ± 0.094
7,T3G,-0.022 ± 0.035
8,H77W,-0.166 ± 0.11
9,L17G,0.074 ± 0.037
10,M2L,-0.042 ± 0.053
11,S66V,-0.117 ± 0.061
12,R8Q,-0.011 ± 0.063
13,K32S,-0.111 ± 0.048
14,G35H,0.088 ± 0.073
15,S74D,-0.064 ± 0.083
16,P15M,-0.638 ± 0.13
17,G35C,-0.057 ± 0.062
18,Y34V,-0.341 ± 0.055
19,E6Q,0.002 ± 0.067
20,Y34P,-0.523 ± 0.16
21,K50V,-0.009 ± 0.035

row,Variant,abundance fitness
1,V9N,0.099 ± 0.044
2,Q61W,-0.101 ± 0.065
3,N46T,-0.035 ± 0.069
4,L79E,-0.054 ± 0.086
5,E33C,-0.307 ± 0.095
6,V39T,-0.002 ± 0.053
7,V39F,0.04 ± 0.074
8,N1E,-0.038 ± 0.12
9,A69S,-0.352 ± 0.23
10,L76E,-0.742 ± 0.27
11,R24T,0.069 ± 0.055
12,V23T,-0.167 ± 0.066
13,T64C,-0.076 ± 0.084
14,W26S,-0.76 ± 0.094
15,M2K,-0.144 ± 0.059
16,F60M,0.13 ± 0.089
17,V39Y,-0.252 ± 0.088
18,T56Q,-0.108 ± 0.14
19,D70K,-0.097 ± 0.081
20,N5T,-0.071 ± 0.052
